Experimental findings from patent publication US20110033875A1 (UNIVERSITY OF GEORGIA RESEARCH FOUNDATION, published 2011) are described below.

In test [1] the target is glycoproteins from mouse endometrioid ovarian tumors nonadherent to Con A. As to the kind of experiment: lectin blot of Con A-unbound mouse tissue glycoproteins with biotinylated E-PHA, densitometry (FIG. 11A lanes 3 and 4).
Test [2] deals with proteins of human ductal invasive breast carcinoma tissue (cases 10406, 10119, 11827, 2417, 2207). The test is described as follows: L-PHA binding to breast tumor tissue proteins, case 10406; scale not defined.
For test [3] the target is unchanged. As to the kind of experiment: L-PHA binding to breast tumor tissue proteins, case 2417; scale not defined.
Test [4] has the same target. The test is described as follows: L-PHA binding to breast tumor tissue proteins, case 11827; scale not defined.
For test [5] the target is unchanged. As to the kind of experiment: L-PHA binding to breast tumor tissue proteins, case 10119; scale not defined.
The target is the same in test [6]. The test is described as follows: L-PHA binding to breast tumor tissue proteins, case 2207; scale not defined.
The target of test [7] is glycoproteins from human endometrioid ovarian tumors (cases 711, 741, 471) nonadherent to Con A. As to the kind of experiment: lectin blot of Con A-unbound glycoproteins, human case 471, biotinylated AAL, densitometry (FIG. 11B lane 4).
In test [8] the target is T1, Glucose-regulated protein 78 immunoprecipitated from human ovarian cancer tissue (human, UniProt P11021 19-654).
T1 construct: also called GRP78
The test is described as follows: GRP78 immunoprecipitated from ovarian cancer tissue, SDS-PAGE, lectin blot.

Test [9] concerns the target T2, Thrombospondin 1 from serum and tissue of ovarian cancer patients (human, UniProt P07996 19-1170, limits assumed, core fucosylated N-linked glycans (inferred from AAL reactivity)).
T2 construct: also called THBS1; AAL-reactive THBS1
The test is described as follows: biotinylated AAL precipitation from serum, Western blot with anti-THBS1 (FIG. 19B panel 2). A general note: In western blotting, separated proteins are transferred to a membrane and probed.

T1 sequence (P11021 19-654 limits assumed): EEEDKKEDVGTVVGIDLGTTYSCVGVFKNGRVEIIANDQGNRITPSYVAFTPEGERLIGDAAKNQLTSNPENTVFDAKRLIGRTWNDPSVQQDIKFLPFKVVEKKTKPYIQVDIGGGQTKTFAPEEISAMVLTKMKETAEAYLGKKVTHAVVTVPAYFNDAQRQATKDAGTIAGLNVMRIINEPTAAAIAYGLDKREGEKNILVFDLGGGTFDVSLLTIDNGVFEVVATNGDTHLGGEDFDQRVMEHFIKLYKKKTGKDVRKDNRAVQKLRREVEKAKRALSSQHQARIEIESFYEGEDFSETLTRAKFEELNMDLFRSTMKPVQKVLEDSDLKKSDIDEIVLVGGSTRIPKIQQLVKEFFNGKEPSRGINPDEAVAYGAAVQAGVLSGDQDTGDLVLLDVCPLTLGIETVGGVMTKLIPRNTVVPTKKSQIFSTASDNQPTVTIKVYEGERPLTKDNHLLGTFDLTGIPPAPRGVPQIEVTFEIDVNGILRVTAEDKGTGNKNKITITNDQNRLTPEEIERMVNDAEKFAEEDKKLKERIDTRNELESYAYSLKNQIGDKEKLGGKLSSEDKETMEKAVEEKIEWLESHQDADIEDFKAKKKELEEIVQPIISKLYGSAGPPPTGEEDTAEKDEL
T2 sequence (P07996 19-1170 limits assumed): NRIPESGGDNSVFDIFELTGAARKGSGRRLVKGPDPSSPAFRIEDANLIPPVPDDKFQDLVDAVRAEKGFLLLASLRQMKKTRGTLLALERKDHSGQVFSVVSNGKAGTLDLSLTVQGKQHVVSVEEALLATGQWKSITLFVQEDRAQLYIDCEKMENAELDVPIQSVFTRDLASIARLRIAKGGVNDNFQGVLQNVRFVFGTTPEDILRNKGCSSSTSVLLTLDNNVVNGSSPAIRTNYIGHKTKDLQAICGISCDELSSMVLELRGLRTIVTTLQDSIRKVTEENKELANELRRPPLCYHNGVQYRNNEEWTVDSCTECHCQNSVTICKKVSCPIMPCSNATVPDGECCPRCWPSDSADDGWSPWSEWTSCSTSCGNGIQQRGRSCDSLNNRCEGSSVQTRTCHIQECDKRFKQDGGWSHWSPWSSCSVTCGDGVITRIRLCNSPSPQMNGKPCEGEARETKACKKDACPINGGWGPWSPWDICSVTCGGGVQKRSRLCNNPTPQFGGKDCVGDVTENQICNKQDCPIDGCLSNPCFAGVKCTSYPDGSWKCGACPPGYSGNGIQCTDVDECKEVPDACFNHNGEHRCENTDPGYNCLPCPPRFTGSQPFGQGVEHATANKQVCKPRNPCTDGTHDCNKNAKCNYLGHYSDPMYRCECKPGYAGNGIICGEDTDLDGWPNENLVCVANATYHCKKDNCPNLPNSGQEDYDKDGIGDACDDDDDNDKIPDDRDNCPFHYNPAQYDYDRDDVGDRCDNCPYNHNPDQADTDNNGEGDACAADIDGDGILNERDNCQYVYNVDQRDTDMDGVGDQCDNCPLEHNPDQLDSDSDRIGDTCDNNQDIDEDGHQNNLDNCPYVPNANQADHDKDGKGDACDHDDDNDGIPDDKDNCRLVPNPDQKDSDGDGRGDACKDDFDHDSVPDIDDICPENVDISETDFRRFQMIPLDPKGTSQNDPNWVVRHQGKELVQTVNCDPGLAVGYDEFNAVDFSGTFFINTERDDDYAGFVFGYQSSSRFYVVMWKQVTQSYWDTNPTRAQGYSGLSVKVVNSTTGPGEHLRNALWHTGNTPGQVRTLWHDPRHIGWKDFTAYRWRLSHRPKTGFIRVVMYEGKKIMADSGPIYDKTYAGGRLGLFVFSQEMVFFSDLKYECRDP

Regarding “Phaseolus vulgaris erythroagglutinin (erythroagglutinating phytohemagglutinin), biotinylated (from UniProt P05088 22-275)”, the level of E-PHA binding for tumor relative to normal (x relative to normal) in [1] is 0.2.
For “Phaseolus vulgaris leukoagglutinin (leukoagglutinating phytohemagglutinin), biotinylated (from UniProt P05087 21-272)”, the L-PHA Level in [2] was found to be 1; in test [3], 10; in test [4] it was 4; in test [5], 4; in test [6], 9.

B1: Aleuria aurantia lectin, biotinylated (other, UniProt P18891 2-313, looked up)
chain: PTEFLYTSKIAAISWAATGGRQQRVYFQDLNGKIREAQRGGDNPWTGGSSQNVIGEAKLFSPLAAVTWKSAQGIQIRVYCVNKDNILSEFVYDGSKWITGQLGSVGVKVGSNSKLAALQWGGSESAPPNIRVYYQKSNGSGSSIHEYVWSGKWTAGASFGSTVPGTGIGATAIGPGRLRIYYQATDNKIREHCWDSNSWYVGGFSASASAGVSIAAISWGSTPNIRVYWQKGREELYEAAYGGSWNTPGQIKDASRPTPSLPDTFIAANSSGNIDISVFFQASGVSLQQWQWISGKGWSIGAVVPTGTPAGW
modifications: biotinylated
notes: Commercial fungal lectin; also called AAL
B1 displayed a fold increase in the level of AAL binding relative to normal in test [7] of 7 fold. For the same molecule, the binding result in test [8] is recorded as “no binding”; in [9], “binds”.

B2: Phaseolus vulgaris erythroagglutinin (erythroagglutinating phytohemagglutinin), biotinylated (other, Phaseolus vulgaris (red kidney bean), UniProt P05088 22-275, looked up)
chain: ASQTSFSFQRFNETNLILQRDATVSSKGQLRLTNVNDNGEPTLSSLGRAFYSAPIQIWDNTTGAVAASPTSFTFNIDVPNNSGPADGLAFVLLPVGSQPKDKGGLLGLFNNYKYDSNAHTVAVEFDTLYNVHWDPKPRHIGIDVNSIKSIKTTTWDFVKGENAEVLITYDSSTKLLVASLVYPSLKTSFIVSDTVDLKSVLPEWVIVGFTATTGITKGNVETNDILSWSFASKLSDGTTSEALNLANFALNQIL
modifications: biotinylated
notes: also called E-PHA; EPHA
With B2, in test [8], the binding result is recorded as “no binding”.
